Results as given in US20260232732A1 (FUNDACI INSTITUT DE RECERCA CONTRA LA LEUC MIA JOSEP …, published 2026).
Where no end group is shown, it is not given here. The star is where a group is joined. Biotin = O=C1N[C@H]2[C@H](CS[C@H]2CCCCC(=O)*)N1

Columns and labels:
[1] = biological target: T1, Peptide 3-BSA (SSMEDYVNFN-C conjugated to BSA) (human); test: ELISA; Ab 0.5 ug/mL; repI
T1 peptide: SSMEDYVNFNC(BSA)
Method: (§1) In brief, plates with each non-conjugated peptide (50 μg/mL) or BSA-conjugated peptide (5 μg/mL) were coated in 0.58M carbonate-bicarbonate buffer pH9.5, 100 μL/well, at 4° C. […] After washing, wells were incubated with the 3, 3′,5,5′-Tetramethylbenzidine (TMB) HRP substrate and reactions were stopped with 2M HCl and OD450 was recorded.

[2] = biological target: T2, Peptide 4-BSA (SMEDYVNFNF-C conjugated to BSA) (human); test: ELISA; Ab 0.5 ug/mL; repI
T2 peptide: SMEDYVNFNFC(BSA)
Method: as §1

[3] = biological target: T3, Peptide 2, non-conjugated (GSESTSSMED-C) (human); test: ELISA; Ab 0.5 ug/mL; repI
T3 construct: With the extra C-terminal Cys
T3 peptide: GSESTSSMEDC
Method: as §1

[4] = biological target: T4, Peptide 3, non-conjugated (SSMEDYVNFN-C) (human); test: ELISA; Ab 0.5 ug/mL; repI
T4 construct: With the extra C-terminal Cys
T4 peptide: SSMEDYVNFNC
Method: as §1

[5] = biological target: T5, BSA (negative control coating) (bovine, UniProt P02769 25-607); test: ELISA; Ab 0.5 ug/mL; repI
T5 construct: also called Negative control BSA
T5 sequence (P02769 25-607 limits assumed): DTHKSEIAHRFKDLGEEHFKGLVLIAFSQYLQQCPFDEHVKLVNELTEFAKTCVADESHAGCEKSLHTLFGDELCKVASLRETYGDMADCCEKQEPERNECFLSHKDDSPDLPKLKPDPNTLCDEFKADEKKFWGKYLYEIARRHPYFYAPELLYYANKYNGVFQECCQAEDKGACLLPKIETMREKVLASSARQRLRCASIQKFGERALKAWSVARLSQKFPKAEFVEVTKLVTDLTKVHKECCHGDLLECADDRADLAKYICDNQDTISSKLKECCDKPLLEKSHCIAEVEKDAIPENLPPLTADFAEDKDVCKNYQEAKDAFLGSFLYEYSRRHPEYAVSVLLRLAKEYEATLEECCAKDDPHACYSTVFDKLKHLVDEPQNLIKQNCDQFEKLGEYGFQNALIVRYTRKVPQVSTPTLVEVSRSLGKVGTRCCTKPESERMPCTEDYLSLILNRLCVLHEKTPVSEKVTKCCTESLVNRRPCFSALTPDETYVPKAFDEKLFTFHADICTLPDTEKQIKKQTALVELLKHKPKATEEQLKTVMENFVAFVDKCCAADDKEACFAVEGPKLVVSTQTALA
Method: as §1

[6] = biological target: T1, Peptide 3-BSA (SSMEDYVNFN-C conjugated …); test: ELISA; Ab 0.01563 ug/mL; repII
Method: as §1

[7] = biological target: T2, Peptide 4-BSA (SMEDYVNFNF-C conjugated …); test: ELISA; Ab 0.01563 ug/mL; repII
Method: as §1

[8] = biological target: T6, Peptide 1, non-conjugated (MADDYGSEST-C) (human); test: ELISA; Ab 0.01563 ug/mL; repII
T6 construct: With the extra C-terminal Cys
T6 peptide: MADDYGSESTC
Method: as §1

[9] = biological target: T3, Peptide 2, non-conjugated (GSESTSSMED-C); test: ELISA; Ab 0.01563 ug/mL; repII
Method: as §1

[10] = biological target: T4, Peptide 3, non-conjugated (SSMEDYVNFN-C); test: ELISA; Ab 0.01563 ug/mL; repII
Method: as §1

[11] = biological target: T7, Peptide 4, non-conjugated (SMEDYVNFNF-C) (human); test: ELISA; Ab 0.01563 ug/mL; repII
T7 construct: With the extra C-terminal Cys
T7 peptide: SMEDYVNFNFC
Method: as §1

[12] = biological target: T5, BSA (negative control coating); test: ELISA; Ab 0.01563 ug/mL; repII
Method: as §1

[13] = biological target: T8, antigen peptide-BSA (immunisation peptide #1 MADDYGSESTSSMEDYVNFNF-C conjugated to BSA) (human, extra C-terminal Cys conjugated to BSA); test: ELISA; Ab 0.01563 ug/mL; repII
T8 construct: also called Positive control antigen peptide-BSA; MADDY peptide
T8 peptide: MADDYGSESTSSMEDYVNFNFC
Method: as §1

[14] = biological target: T9, Peptide 1-BSA (MADDYGSEST-C conjugated to BSA) (human); test: ELISA; Ab 0.01563 ug/mL; repII
T9 peptide: MADDYGSESTC(BSA)
Method: as §1

[15] = biological target: T10, Peptide 2-BSA (GSESTSSMED-C conjugated to BSA) (human); test: ELISA; Ab 0.01563 ug/mL; repII
T10 peptide: GSESTSSMEDC(BSA)
Method: as §1

[16] = biological target: T11, biotin-peptide TSSMEDYVNF (human); test: ELISA biotin-peptide; scFv 5 ug/mL; repI
T11 peptide: Biotin-TSSMEDYVNF
Method: (§2) The peptides were synthesized naked or with a N-terminal Biotin modification with a purity of >98%. All four scFvs were verified by ELISA that can be detected with anti-His antibodies. ELISA was performed for scFv-peptide binding validation. Briefly, naked peptides were coated (50 μg/mL) in 0.58M carbonate-bicarbonate buffer pH9.5, 100 μL/well, 4° C. O/N. Then after blocking (3% BSA-PBS, 300 μL/well 37° C. 1.5 h) and washing (PBS+Tween-20 0.05% v/v (0.05% PBST), wells were incubated with each purified scFv antibody at concentration of 1 μg/mL in PBS at 37° C. 1 h. After washing (0.05% PBST), wells were incubated with secondary antibodies (goat anti-His IgG-HRP) in PBS, 37° C., 30 min. After washing, and incubation with TMB substrate, reactions were stopped with 2M HCl and reading was quantified at OD450.
(§3) ELISA with biotin-conjugated peptides (5 μg/mL) was performed very similar to described above with minor modifications.
(§4) A full curve ELISA was performed for each positive scFv/biotin-peptide pair in order to confirm previous results. Tables 15-17 show ELISA results of the dose-dependent full curve for each positive peptide with scFv “CCR9_HUM”, “Comp-2” and “Comp-3”, respectively.

[17] = biological target: T12, biotin-peptide SSMEDYVNFN (human); test: ELISA biotin-peptide; scFv 5 ug/mL; repI
T12 peptide: Biotin-SSMEDYVNFN
Method: as §2, §3, §4

[18] = biological target: T13, biotin-peptide SMEDYVNFNF (human); test: ELISA biotin-peptide; scFv 5 ug/mL; repI
T13 peptide: Biotin-SMEDYVNFNF
Method: as §2, §3, §4

[19] = biological target: T14, biotin-peptide MEDYVNFNFT (human); test: ELISA biotin-peptide; scFv 5 ug/mL; repI
T14 peptide: Biotin-MEDYVNFNFT
Method: as §2, §3, §4

[20] = biological target: T11, biotin-peptide TSSMEDYVNF; test: ELISA biotin-peptide; scFv 0.625 ug/mL; repI
Method: as §2, §3, §4

[21] = biological target: T12, biotin-peptide SSMEDYVNFN; test: ELISA biotin-peptide; scFv 0.625 ug/mL; repI
Method: as §2, §3, §4

[22] = biological target: T13, biotin-peptide SMEDYVNFNF; test: ELISA biotin-peptide; scFv 0.625 ug/mL; repI
Method: as §2, §3, §4

[23] = biological target: T14, biotin-peptide MEDYVNFNFT; test: ELISA biotin-peptide; scFv 0.625 ug/mL; repI
Method: as §2, §3, §4

B1: anti-CCR9 antibody clone 115 (murine, from hybridoma #115) (antibody, V domains shown)
VH: QVQLKQSGPELVKPGTSVRVSCTASGYSFTDYIIYWVKQSHGRSLEWIGYIDPNNYNTRYSQKFKGKATLTVDKSSTSAFMHLNSLTSDDSAVYYCARDVYWGQGTTLTVSS
VL: DVVMTQTPLSLTVSLGDQASISCRSSQSLVHSNGKTYLQWYLQKPGQSPKLLIYKVSNRFSGVPDRFSGSGSGTDFTLKISRVEAEDLGVYFCAQSTHVWTFGGGTKLEIKR
notes: Mouse IgG1
[1]
  OD450: 2.03 OD
[2]
  OD450: 2.67 OD
[3]
  OD450: 0.02 OD
[4]
  OD450: 1.94 OD
[5]
  OD450: 0.02 OD
[6]
  OD450: 1.34 OD
[7]
  OD450: 1.03 OD
[8]
  OD450: 0.01 OD
[9]
  OD450: 0.01 OD
[10]
  OD450: 1.4 OD
[11]
  OD450: 0.46 OD
[12]
  OD450: 0.01 OD
[13]
  OD450: 1.21 OD
[14]
  OD450: 0.01 OD
[15]
  OD450: 0.01 OD

B2: CCR9_HUM2 scFv (humanized anti-CCR9 scFv, SEQ ID NO: 17 with C-terminal 6xHis tag) (scFv)
scFv: QVQLVQSGAEVKKPGASVKVSCTASGYSFTDYIIYWVKQAHGQSLEWMGYIDPNNYNTRYSQKFQGKVTITVDKSSTSAYMELNSLTSDDTAVYYCARDVYWGQGTTVTVSSGGGGSGGGGSGGGGSGGGGSDVVMTQTPLSLSVTPGQPASISCRSSQSLVHSNGKTYLQWYLQKPGQSPKLLIYKVSNRFSGVPDRFSGSGSGTDFTLKISRVEAEDVGVYFCAQSTHVWTFGGGTKVEIKRAHHHHHH
[16]
  OD450: 1.47 OD
[17]
  OD450: 1.86 OD
[18]
  OD450: 1.78 OD
[19]
  OD450: 1.71 OD
[20]
  OD450: 0.78 OD
[21]
  OD450: 1.73 OD
[22]
  OD450: 1.71 OD
[23]
  OD450: 1.53 OD
